The target of the experiment is Wild-type placental protein 13/galectin-13 (Gal-13) (human) (UniProt Q9UHV8).

B1: Wild-type placental protein 13/galectin-13 (Gal-13) (natural protein)
chain: MSSLPVPYKLPVSLSVGSCVIIKGTPIHSFINDPQLQVDFYTDMDEDSDIAFRFRVHFGNHVVMNRREFGIWMLEETTDYVPFEDGKQFELCIYVHYNEYEIKVNGIRIYGFVHRIPPSFVKMVQVSRDISLTSVCVCN
The molecule B1 returned a hemagglutination of chicken erythrocytes, minimum agglutination concentration (MAC) of 25 µg/mL.

The values above are taken from article PMC6294630.
